Laboratory results published in patent publication US10501734B2, “Compositions and methods of use thereof for making polypeptides with many instances of nonstandard amino acids” (Yale University, priority 2014, dated 2019).
Non-standard residues stand in square brackets, D forms with d. Phe(4-N3) = [N-]=[N+]=Nc1ccc(C[C@H](N)C(=O)O)cc1

Target: BSA (Bos taurus, UniProt P02769)
Assay: Binding to BSA coated agarose beads, GFP fluorescence
Conditions: palmitic acid conjugated; 30 vs. 1 pAzF instances
Excerpt: When supplied with insufficient amounts of alkyne (a ratio of 0.125, 0.25 and 0.5 alkyne:azide), a partial shift was observed as well as a “smear” of the protein band that signifies stochastic reaction of less than 30 sites. In contrast, when sufficient alkyne was supplied, a sharp band is apparent with a consistent size shift compared with the unreacted control. Next, ELP-GFP containing either 30 azide groups or a single azide group and 30 tyrosine groups were contacted with BSA coated agarose beads. The beads were subsequently washed and the amount of protein bound to the beads was measured via GFP fluorescence. The results are illustrated in FIG. 11.

Sequence of BSA (P02769 25-607): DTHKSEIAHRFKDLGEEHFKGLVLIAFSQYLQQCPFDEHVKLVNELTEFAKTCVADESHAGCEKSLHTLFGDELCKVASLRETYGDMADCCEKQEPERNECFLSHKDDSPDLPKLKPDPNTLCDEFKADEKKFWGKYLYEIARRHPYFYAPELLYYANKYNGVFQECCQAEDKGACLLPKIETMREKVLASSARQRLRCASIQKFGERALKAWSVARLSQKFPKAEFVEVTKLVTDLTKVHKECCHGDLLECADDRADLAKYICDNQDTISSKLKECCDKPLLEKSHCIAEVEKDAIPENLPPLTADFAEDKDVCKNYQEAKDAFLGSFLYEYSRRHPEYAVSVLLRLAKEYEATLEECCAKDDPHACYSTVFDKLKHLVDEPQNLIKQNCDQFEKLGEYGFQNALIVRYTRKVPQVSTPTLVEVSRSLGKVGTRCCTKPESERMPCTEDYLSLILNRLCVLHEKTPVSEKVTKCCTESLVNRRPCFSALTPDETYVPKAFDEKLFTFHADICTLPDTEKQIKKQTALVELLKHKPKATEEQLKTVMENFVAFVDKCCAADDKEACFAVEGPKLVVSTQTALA

B1: ELPs containing 30 pAzF nsAAs: ELP(30TAG)-GFP with 30 pAzF conjugated by click reaction to palmitic acid-alkyne (conjugate)
chain: SKGPGVPGGGVPGAGVPG[Phe(4-N3)](palmitic acid‑alkyne)GVPGGGVPGAGVPG[Phe(4-N3)](palmitic acid‑alkyne)GVPGGGVPGAGVPG[Phe(4-N3)](palmitic acid‑alkyne)GVPGGGVPGAGVPG[Phe(4-N3)](palmitic acid‑alkyne)GVPGGGVPGAGVPG[Phe(4-N3)](palmitic acid‑alkyne)GVPGGGVPGAGVPG[Phe(4-N3)](palmitic acid‑alkyne)GVPGGGVPGAGVPG[Phe(4-N3)](palmitic acid‑alkyne)GVPGGGVPGAGVPG[Phe(4-N3)](palmitic acid‑alkyne)GVPGGGVPGAGVPG[Phe(4-N3)](palmitic acid‑alkyne)GVPGGGVPGAGVPG[Phe(4-N3)](palmitic acid‑alkyne)GVPGGGVPGAGVPG[Phe(4-N3)](palmitic acid‑alkyne)GVPGGGVPGAGVPG[Phe(4-N3)](palmitic acid‑alkyne)GVPGGGVPGAGVPG[Phe(4-N3)](palmitic acid‑alkyne)GVPGGGVPGAGVPG[Phe(4-N3)](palmitic acid‑alkyne)GVPGGGVPGAGVPG[Phe(4-N3)](palmitic acid‑alkyne)GVPGGGVPGAGVPG[Phe(4-N3)](palmitic acid‑alkyne)GVPGGGVPGAGVPG[Phe(4-N3)](palmitic acid‑alkyne)GVPGGGVPGAGVPG[Phe(4-N3)](palmitic acid‑alkyne)GVPGGGVPGAGVPG[Phe(4-N3)](palmitic acid‑alkyne)GVPGGGVPGAGVPG[Phe(4-N3)](palmitic acid‑alkyne)GVPGGGVPGAGVPG[Phe(4-N3)](palmitic acid‑alkyne)GVPGGGVPGAGVPG[Phe(4-N3)](palmitic acid‑alkyne)GVPGGGVPGAGVPG[Phe(4-N3)](palmitic acid‑alkyne)GVPGGGVPGAGVPG[Phe(4-N3)](palmitic acid‑alkyne)GVPGGGVPGAGVPG[Phe(4-N3)](palmitic acid‑alkyne)GVPGGGVPGAGVPG[Phe(4-N3)](palmitic acid‑alkyne)GVPGGGVPGAGVPG[Phe(4-N3)](palmitic acid‑alkyne)GVPGGGVPGAGVPG[Phe(4-N3)](palmitic acid‑alkyne)GVPGGGVPGAGVPG[Phe(4-N3)](palmitic acid‑alkyne)GVPGGGVPGAGVPG[Phe(4-N3)](palmitic acid‑alkyne)GPGGGG-{GFP}
modifications: also: conjugated by click reaction
notes: ELP(30TAG)-GFP with 30 pAzF conjugated by click reaction to palmitic acid-alkyne
With B1 the BSA binding was “improved BSA binding”.
